In patent US20240124575A1 (SIMCERE ZAIMING PHARMACEUTICAL, published 2024):
Like-named read-outs stand apart in the source and are kept apart here. One block for each binder: values may come before it.

Key:
[1] = molecular target: T1, human CD33 on U937 cells (endogenous) (human, UniProt P20138 18-364); assay: FACS, U937 cells
T1 construct: whole, on cells
Description: (§1) The desired cells were expanded to a logarithmic growth phase in a T-75 cell culture flask. For adherent cells CHO-K1, the culture medium was removed by pipetting, and the cells were washed twice with a PBS buffer, digested with trypsin, and washed twice with a PBS buffer again after the digestion was stopped. For suspension cells U937, the medium supernatant was discarded by direct centrifugation, and the cell pellet was washed twice with PBS, and then incubated with a buffer containing human Fc Block (purchased from BD, Cat. No. 564220) for 15 min. After the cells obtained in the last step were subjected to cell counting, the cell pellet was resuspended to 2×10⁶ cells/mL with a blocking solution [PBS+2% (w/w) BSA] and added to a 96-well FACS reaction plate at 50 μL/well. The VHH-Fc antibody (a sample to be tested) was added at 50 μL/well, and the plate was incubated on ice for 2 h. […] After the plate was centrifuged and washed 5 times with a PBS buffer, the results were assayed and analyzed by FACS (FACS Canto™, purchased from BD Biosciences), so as to obtain the mean fluorescence intensity (MFI) of cells. Then, analysis was performed by software (GraphPad Prism8), data were fitted, and EC50 values were calculated.

[2] = molecular target: T1, human CD33 on U937 cells (endogenous); assay: FACS, U937 cells; remark: listed apart in the source
Description: as §1

[3] = molecular target: T2, human CD33 on CHO-K1 cells (CHO-K1-human CD33) (human, UniProt P20138 18-364); assay: FACS, CHO-K1-human CD33 cells
T2 construct: whole, on cells; stably transfected CHO-K1 clones; also called CHO-K1-hCD33-B8; CHO-K1-human CD33 B8
T2 sequence (P20138 18-364): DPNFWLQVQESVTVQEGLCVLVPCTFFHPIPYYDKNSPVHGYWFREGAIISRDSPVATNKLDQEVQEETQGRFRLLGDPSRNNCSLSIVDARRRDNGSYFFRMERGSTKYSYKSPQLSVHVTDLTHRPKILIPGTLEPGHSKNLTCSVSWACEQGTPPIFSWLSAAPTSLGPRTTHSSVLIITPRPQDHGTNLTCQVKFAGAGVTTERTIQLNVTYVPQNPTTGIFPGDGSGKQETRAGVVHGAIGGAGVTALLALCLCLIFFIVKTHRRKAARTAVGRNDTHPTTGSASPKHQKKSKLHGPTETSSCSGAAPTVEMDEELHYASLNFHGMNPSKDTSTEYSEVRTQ
Description: as §1

monkey CD33-His protein = molecular target: T3, monkey CD33-His protein (monkey); assay: ELISA on coated monkey CD33-his
T3 construct: also called monkey CD33 protein

human CD33-C2-his = molecular target: T4, human CD33-C2-his (human, UniProt P20138 136-260); assay: ELISA on coated human CD33-C2-his
T4 construct: expressed in HEK293E; also called hCD33-C2-his; human CD33 protein C2-domain; not shown: His tag
T4 sequence (P20138 other isoform, or with tags, fused parts or gaps limits assumed): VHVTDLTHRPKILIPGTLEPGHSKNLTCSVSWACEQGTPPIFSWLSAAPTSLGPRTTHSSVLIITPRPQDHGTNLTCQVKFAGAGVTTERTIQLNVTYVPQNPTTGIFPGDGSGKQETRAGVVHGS
From the text: Plates were coated with human CD33-V-his (membrane distal end) and human CD33-C2-his (membrane proximal end), respectively, according to the ELISA method in Example 8. The VHH humanized antibodies were classified based on the membrane distal end and the membrane proximal end, as shown in FIGS. 20A-20J and Table 44, which allowed the classification of the VHH humanized antibodies into the following classes: […]

[4] = molecular target: T5, human CD33-His (extracellular domain Asp 18-His 259) (human, UniProt P20138 18-259); assay: competitive ELISA vs coated S006-NB146-39 2ug/mL; soluble 25ug/ml
T5 construct: range 18-259; bought protein; also called hCD33-his; human CD33 protein; not shown: His tag
T5 sequence (P20138 18-259 limits assumed): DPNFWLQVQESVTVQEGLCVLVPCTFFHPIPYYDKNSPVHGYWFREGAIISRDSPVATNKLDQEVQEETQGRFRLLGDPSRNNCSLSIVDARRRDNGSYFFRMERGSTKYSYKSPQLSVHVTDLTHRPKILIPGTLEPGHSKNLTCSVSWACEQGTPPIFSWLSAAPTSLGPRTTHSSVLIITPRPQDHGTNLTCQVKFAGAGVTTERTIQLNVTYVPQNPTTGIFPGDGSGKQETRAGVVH
Description: (§2) VHH antibodies and control antibodies with known epitopes were subjected to epitope classification with competitive ELISA. ELISA plates were coated with 2 μg/mL antibodies according to the method in Example 5.1; the human CD33-his protein was subjected to a gradient dilution from 30 μg/mL, and EC80 values (Tables 26-27) were calculated. ELISA plates were coated with 2 μg/mL antibodies; after 25 µg/mL of antibodies to be tested were added, a human CD33-his protein having an EC80 concentration corresponding to each of the antibodies to be tested was then added for incubation for 2 h. The plates were washed 5 times with PBS, then HRP-labeled anti-His antibodies (purchased from GenScript, Cat. No. A00612) were added for incubation for 1 h, and the plates were washed 5 times. A TMB substrate was added at 50 μL/well and incubated at room temperature for 10 min, then a stop solution (1.0 M HCl) was added at 50 μL/well. OD_{450 nm} values were read using an ELISA plate reader (Insight, purchased from PerkinElmer), and the competition rate between the antibodies was calculated according to the OD_{450 nm} values using a formula. The results are shown in FIGS. 12A-12B, the higher the value of the competition rate, the closer the epitopes to which two antibodies bind.

[5] = molecular target: T5, human CD33-His (extracellular domain …); assay: competitive ELISA vs coated S006-NB146-60 2ug/mL; soluble 25ug/ml
Description: as §2

[6] = molecular target: T5, human CD33-His (extracellular domain …); assay: competitive ELISA vs coated S006-NB146-150 3ug/mL; soluble 25ug/ml
human CD33-his protein [7] = molecular target: T6, human CD33-his protein (human, UniProt P20138 18-259); assay: competition ELISA, coated human CD33-his, vs Biotin-C33B904 at EC80; antibody 1.95 nM
T6 construct: range 18-259; bought protein; also called hCD33-his; recombinant human CD33-his; not shown: His tag
T6 sequence (P20138 18-259 limits assumed): as above
Description: (§3) ELISA plates were coated with 2 μg/mL human CD33-his protein according to the method in Example 5.1; the Biotin-C331B904 antibody was subjected to a gradient dilution from 15 μg/mL, and EC80 values (0.18 μg/mL) were calculated. ELISA plates were coated with 2 μg/mL human CD33-his protein; starting from 40 μg/mL, the VHH antibodies to be tested were diluted in a 1:2 dilution ratio to obtain seven concentrations and added to the ELISA plates, and then Biotin-C331904 antibodies with the EC80 concentrations were added for incubation for 2 h. The plates were washed 5 times with PBS and then […] (purchased from Sigma, Cat. No. S2438) were added for incubation for 1 h, and the plates were washed 5 times. A TMB substrate was added at 50 μL/well and incubated at room temperature for 10 min, then a stop solution (1.0 M HCl) was added at 50 μL/well. OD_{450 nm} values were read using an ELISA plate reader (Insight, purchased from PerkinElmer). Then, analysis was performed by software (GraphPad Prism8), and data were fitted for curve plotting. The results are shown in FIGS. 13A-13B and Tables 28 and 29.

human CD33-his protein [8] = molecular target: T6, human CD33-his protein; assay: competition ELISA, coated human CD33-his, vs Biotin-C33B904 at EC80; antibody 250.00 nM
Description: as §3

T1 sequence (P20138 18-364): as the sequence (P20138 18-364) above

EC50 [1]: 8.41 nM | Max MFI [1]: 599 MFI | EC50 [2]: 12.6 nM | Max MFI [2]: 682 MFI | EC50 [3]: 12.5 nM | Max MFI [3]: 15000 MFI | EC50 (read off the curve) (monkey CD33-His protein): ~0.1 nM | EC50 (read off the curve) (human CD33-C2-his): ~0.1 nM | inhibition rate [4]: 85% | inhibition rate [5]: 8% | inhibition rate [6]: 100%
B1: C33B904 hIgG1 (antibody, V domains shown)
VH: EVQLVESGGGLVQPGRSLRLSCAASGFTFDDYAMHWVRQAPGKGLEWVSGIGWSGGSIVYADSVKGRFTISRDNAKNSLYLQMNSLRAEDTALYYCAKDSPYGDFFDYWGQGTLVTVSS
VL: DIVMTQSPDSLAVSLGERATINCKSSQTVFYSSNNKNYLAWYQQKPGQPPKLLISWASTRKSGVPDRFSGSGSGTDFTLTVSSLQAEDVAVYYCQHYYSTPYTFGQGTKLEIKR
notes: intact human IgG1; variable regions from US20190382481A1; also called C33B3904; C331B904

OD450 (Biotin-C33B904 signal) (human CD33-his protein [7]): 2.02 | OD450 (Biotin-C33B904 signal) (human CD33-his protein [8]): 0.1
B2: C33B904 (antibody, human IgG1, kappa, V domains shown)
VH: B1 VH
VL: B1 VL
notes: control antibody, intact human IgG1 form; variable regions from US20190382481A1; also called C33B904 hIgG1; C331B904
